From US8470576B2, “Group of novel enantioselective microbial nitrile hydratases with broad substrate specificity” (B.R.A.I.N. AG, priority 2006, dated 2013)
Residue numbers refer to the chain shown, from its start.

Key:
Format in all cases: biochemical
[1] = Activity of enzyme samples after heterologous expression of NHases in E. coli towards PPN; details: 1 mM PPN; stopped after 1 min; host E. coli BL21 (DE3) (a) or E. coli Rosetta (DE3) (b)
Procedure: The amplified α-subunits were ligated to pET22b whereas the β-subunits were ligated to pET26b by use of the unique NdeI and XhoI restriction enzyme recognition sites. E. coli BL21 (DE3) or E. coli Rosetta (DE3) was cotransformed with the vectors carrying the genes for the corresponding α- and β-subunits of the NHases. Freshly transformed cells were grown over night at 37° C. in 5 ml LB-medium containing 100 μg/ml ampicillin, 25 μg/ml kanamycin and 2% (w/v) glucose. In case of E. coli Rosetta (DE3) 12.5 μg/ml chloramphenicol was additionally used. 1 ml of this culture was used to inoculate 100 ml of LB-medium containing 100 μg/ml ampicillin, 25 μg/ml kanamycin and 1% (w/v) glucose. Cells were incubated at 20° C. or 30° C. on a gyratory shaker at 100 rpm. At an optical density O.D.595=1 cells were induced by addition of 100 μg/ml IPTG. Simultaneously, CoCl2*6H2O was added in a concentration of 250 μM. When the P16K activator protein from the strain Brevibacterium linens was coexpressed with the corresponding NHase E. coli Rosetta (DE3) pET22—32B1α pET26—32B.1β pBBR5—32B_P16K was grown in LB-medium containing 100 μg/ml ampicillin, 25 μg/ml kanamycin, 12.5 μg/ml chloramphenicol and 10 μg/ml gentamycin and 1% (w/v) glucose. Samples were taken 24 h after induction.
(§1) If not otherwise indicated enzyme samples were prepared as follows: the cells from 1 ml of the culture were washed with 50 mM Tris/HCl pH 7.5 and resuspended in 750 μl of the same buffer. This suspension was incubated at 30° C. in a thermomixer at 1000 rpm. The biotransformation was started by addition of the substrate 2-phenylpropionitrile (PPN) in 50 mM Tris/HCl pH 7.5. The concentration of the substrate was 1 mM, if not otherwise stated. The reaction was stopped after 1 min, 5 min or 10 min as indicated by addition of 1 M HCl. Cells were removed by centrifugation and the supernatant analysed by HPLC for the presence of the corresponding amide. The HPLC analysis was carried out on a system comprising a Surveyor 4 channel Pump, AutoSampler and UVNIS detector at 210 nm from Thermo Finnigan on a Grom-Sil 1200DS-3 cp 3 μm (125×4.6 mm) reverse phase column. As mobile phase, acetonitrile and 0.3% H3PO4 were used in a ratio of 50:50 at a flow of 0.7 ml/min, respectively.

[2] = Dependence of NHase activity on the pH
Procedure: (§2) Cell free crude extracts from Raoultella terrigena (77.1) were incubated for 5 min at 30° C. and the indicated pH-values. The reaction was subsequently started by addition of substrate (1 mM PPN). The activity was determined as described in example 4. Buffers used: McIlvaine buffer: ˜0.1 M citrate/phosphate-buffer; Tris-buffer: 0.1 M Tris/HCl-buffer
as §2, with “E. coli BL21 (DE3) pET22-77.1a/pET26—77.1b” for “Raoultella terrigena (77.1)”
Cell free crude extracts from Klebsiella sp. (77.1) and E. coli BL21 (DE3) pET22—77.1a/pET26—77.1b were incubated for 5 min at 30° C. and the indicated pH-values. The reaction was subsequently started by addition of substrate (1 mM PPN). The activity was determined as described in example 4. Buffers used: McIlvaine buffer: ˜0.1 M citrate/phosphate-buffer
(§3) Lyophilized cells were incubated for 5 min at the indicated pH-values. The reaction was subsequently started by addition of substrate (1 mM PPN). The activity was determined as described in example 4. Buffers used: McIlvaine buffer: ˜0.1 M citrate/phosphate-buffer; Tris-buffer: 0.1 M Tris/HCl-buffer
as §3, with “Cell free crude extracts” for “Lyophilized cells”
as §1
The pH-optimum for the enzyme according to Seq ID No. 2 and 4 (Raoultella terrigena, 77.1) has its pH-optimum at pH 6.75 (FIG. 27).
The NHase according to Seq ID. No. 18 and 20 (Klebsiella oxytoca, 38.1.2) was determined to be between pH 7.0-pH 7.5 (FIG. 28 and FIG. 29). […] At a pH 10, the residual activity of the enzyme is about 65-75%.

[3] = Enantioselectivity of NHases towards rac-mandelonitrile (washed cells, chiral HPLC); details: for enantiopreference: (R/S)-mandelonitrile; for Eapp-value: kinetic resolution of (R/S)-mandelonitrile; for Eapp-value heterologously expressed / Eapp-value homologously expressed: rac-mandelonitrile; for Eapp-value heterologously expressed: heterologously expressed NHase; for Eapp-value homologously expressed: homologously expressed NHase
Procedure: For the determination of enantioselectivity towards rac-mandelonitrile and 2-phenylpropionitrile 40-50 mg of washed cells were resuspended in 1 ml of 50 mM Tris/HCl pH 7.5. 100 μl of cell suspension were mixed with 800 μl 50 mM Tris/HCl pH 7.5 and incubated at 30° C. in a thermomixer at 1000 rpm. The biotransformation was started by addition of 100 μl of 10 mM rac-mandelonitrile or rac-2-phenylpropionitrile in 50 mM Tris/HCl pH 7.5. The reaction was stopped by addition of 100 μl 1M HCl after 1, 5 or 10 min. Cells were removed by centrifugation and the supernatant analysed by chiral HPLC for the presence of mandeloamide and phenylpropionamide, respectively. rac-Mandeloamide was analysed on a HPLC comprising a Surveyor 4 channel Pump, AutoSampler and UVNIS detector at 210 nm from Thermo Finnigan on a Nucleodex β-OH column (Macherey & Nagel) using 50% methanol/water:water (40:60) as mobile phase at a flow rate of 0.7 ml/min. The apparent enantiomeric ratio (Eapp) of the conversion of mandelonitrile was calculated according to Straathof and Jongejan for […] (see example 9). In case of 2-phenylpropionamide, the samples were lyophilized and resuspended in n-hexane: 2-propanol (80:20). Prior to injection, the samples were additionally dried with sodium sulfate and were centrifugated at 16,000 g for 5 min. The supernatants were analyzed using a Chiracel OD column (Daicel) on a Spectra System (AS3000, P2000, UV2000 at 210 nm) from Thermo Separation Products with n-hexane: 2-propanol (80:20) as mobile phase at a flow rate of 0.5 ml/min. The enantiomeric ratio (E) of the conversion of PPN was calculated according to Chen et al. […]

B1: NHase Seq ID No. 2 and 4: nitrile hydratase of Raoultella terrigena strain 77.1, α-subunit SEQ ID NO 2, β-subunit SEQ ID NO 4 (protein)
alpha: MSHKHDHDHTEPPVDIELRVRALESLLQEKGLIDPAALDELIDTYEHKVGPRNGAQVVARAWSDPEYKRRLMENATAAISELGFSGIQGEDMLVVENTPDVHNVTVCTLCSCYPWPVLGLPPVWYKSAPYRSRIVIDPRGVLAEFGLHIPESKEIRVWDSSAELRYLVLPERPAGTDGWSEAQLSELISRDSMIGTGVVTAP
beta: MNGIHDLGGMHGFGPIPTEENEPYFHHEWERRVFPMFASLFVGVHFNVDEFRHSIECMPPADYLQSSYYEHWLHAFETLLLAKGVITVDELWGGAKPTLCKPGTPVLTQDMVSMVVSTGGSARVSHDVAPRFRVGDRVRTKNFNPTTHTRLPRYARDKVGRIEIAHGVFITPDTAAHGLGEHPQHVYSVSFTAQELWGEPRPDNVFIDLWDDYLEEA
modifications: Raoultella terrigena, strain 77.1
[1]
  vol. activity: 4.9 μkat/L cultur
[2]; 1 mM PPN
  pH-optimum: 6.75
[2]; homologously produced enzyme
  residual activity at pH 4.0: about 6%
[2]
  residual activity at pH 10: about 27%
[2]; recombinantly produced enzyme
  activity at pH<6.0: no activity
[3]
  enantiopreference: (S)
  Eapp-value: 20
  Eapp-value heterologously expressed: 20
  Eapp-value homologously expressed: 19

B2: NHase Seq ID No. 18 and 20: nitrile hydratase of Klebsiella oxytoca strain 38.1.2, α-subunit SEQ ID NO 18, β-subunit SEQ ID NO 20 (protein)
alpha: B1 alpha with E11Q, S80A, S152N, D177E, S189T
beta: MNGIHDLGGMHGLGPIPTEENEPYFHHEWERRVFPLFASLFVGGHFNVDEFRHAIERMAPTEYLQSSYYEHWLHAFETLLLAKGVITVEELWGGAKPAPCKPGTPVLTQEMVSMVVSTGGSARVSHDVAPRFRVGDWVRTKNFNPTTHTRLPRYARDKVGRIEIAHGVFITPDTAAHGLGEHPQHVYSVSFTAQALWGEPRPDKVFIDLWDDYLEEA
modifications: Klebsiella oxytoca, strain 38.1.2
[1]
  spec. activity: 9.6 μkat/g cdw
  vol. activity: 8.6 μkat/L cultur
[2]; crude cell extracts
  activity at pH-value<6: inactivated
[2]; lyophilized cells
  residual activity at pH 3.0: about 10%
[2]
  residual activity at pH 10: 65-75%
[3]
  enantiopreference: (S)
  Eapp-value: 19
  Eapp-value heterologously expressed: 19
  Eapp-value homologously expressed: 17
